Laboratory results taken from patent US20080008707A1, “Denatured collagen peptides and uses thereof” (Cell-Matrix, Inc., priority 2006, published 2008).
Each block holds one molecule with its values, some of them ahead of it. Square brackets hold non-standard residues; d marks the D form. Ends that are not written are not given here. Hyp = O=C(O)[C@@H]1C[C@@H](O)CN1

What was measured:
[1] = test system: D93; experiment: Peptide array screening ELISA: D93 binding to biotinylated synthetic collagen peptides; details: for MAB BINDING (OD450nM): D93 at 10 μg/mL, average of duplicate tests, secondary array, proline or hydroxyproline at each proline position; for binding activity by D93 (primary peptide array): 10 μg/mL D93, 16-mers with N-terminal biotin, 50% proline/hydroxyproline mixture at each proline
Experimental: The synthesis of short peptide arrays or single peptides was contracted to New England Peptide, Gardner, Mass. A peptide array (primary array) was initially constructed which corresponded to specific locations in the protein sequences that were identified in by N-terminal sequencing reactions as described above. The peptide array consisted of a 96-well microplate template containing individual, overlapping peptides (˜1 to 10 mg/well) corresponding to a contiguous sequence of the human collagen type alpha I chain (between residues G1,064 and T1,669) with an N-terminal biotin and 50% hydroxyproline or proline mixture for each proline residue, with a length of 16 amino acids and overlap of 10 amino acids with the adjacent protein sequence. Peptides were dissolved in 400 μL DMSO to achieve a stock peptide concentration of 2.5 to 25 mg/mL.
The ELISA assay described above was used screen peptides for D93 binding activity. Briefly, 100 μL of streptavidin at 10 μg/mL in PBS was coated onto 96-well microtiter plates from 12 to 18 hours at 2 to 8° C. Plates were blocked with 1% BSA/PBS as above. D93 was diluted to 10 μg/mL in 1% BSA/PBS, and 100 μL per well was added, in duplicate, as described above and incubated for 1 hour at room temperature. The secondary anti-human IgG-HRP, substrate development and plate reader steps were as described above. Peptides which were bound by D93 were further tested for inhibition of D93 binding to human heat-denatured-collagen IV using the ELISA described above. Peptides and D93 antibody were prepared at a 2× concentration in 1% BSA/PBS of the final test concentration and pre-mixed in 1.7 mL microfuge for 15 minutes prior to adding to the microplate wells.
A second peptide array was constructed based on permutations of the protein sequence (collagen IV alpha I chain residues 1337-1352, termed “peptide 40” of the primary array) in the primary array that reacted with D93. The secondary array consisted of individual peptides with either proline or hydroxyproline at each proline residue in the peptide PGAKGLPGPPGPPGPY (SEQ ID NO: 1).

[2] = biological target: dn-collagen or synthetic peptide (sensor chips with a low or medium density); experiment: SPR (Biacore), bivalent antibody binding, avidity model
[3] = biological target: human heat-denatured collagen type IV (human); experiment: SPR, low density denatured collagen IV surface, avidity model, CLAMP
[4] = biological target: human heat-denatured collagen type IV (human); experiment: SPR, high density denatured collagen IV surface, avidity model, CLAMP
[5] = biological target: human heat-denatured collagen type IV (human); experiment: SPR, medium density denatured collagen IV surface, avidity model, CLAMP
[6] = biological target: human heat-denatured collagen type IV (human); experiment: SPR (Biacore), low density dn-collagen on CM5 chip, monomeric (one Fab region) binding
[7] = biological target: human heat-denatured collagen type IV (human); experiment: SPR (Biacore), high density dn-collagen on CM5 chip, monomeric (one Fab region) binding
[8] = biological target: biotinylated synthetic collagen peptide α1(IV) P1337-Y1352 (human); experiment: SPR (Biacore), low density biotinylated peptide on streptavidin chip, monomeric D93 Fab
[9] = biological target: biotinylated synthetic collagen peptide α1(IV) P1337-Y1352 (human); experiment: SPR (Biacore), high density biotinylated peptide on streptavidin chip, monomeric D93 Fab
[10] = biological target: human heat-denatured collagen type IV (human); experiment: SPR (Biacore), medium density dn-collagen on CM5 chip, monomeric (one Fab region) binding
[11] = biological target: biotinylated synthetic collagen peptide α1(IV) P1337-Y1352 (human); experiment: SPR (Biacore), medium density biotinylated peptide on streptavidin chip, monomeric D93 Fab
[12] = biological target: biotinylated synthetic collagen peptide α1(IV) P1337-Y1352 (human); experiment: SPR, high density biotinylated peptide surface on streptavidin, avidity model, CLAMP
[13] = biological target: biotinylated synthetic collagen peptide α1(IV) P1337-Y1352 (human); experiment: SPR, medium density biotinylated peptide surface on streptavidin, avidity model, CLAMP
[14] = biological target: human heat-denatured collagen type IV (human); experiment: SPR, low density denatured collagen IV surface, avidity model (second binding step), CLAMP
[15] = biological target: human heat-denatured collagen type IV (human); experiment: SPR, high density denatured collagen IV surface, avidity model (second binding step), CLAMP
[16] = biological target: human heat-denatured collagen type IV (human); experiment: SPR, medium density denatured collagen IV surface, avidity model (second binding step), CLAMP
[17] = biological target: biotinylated synthetic collagen peptide α1(IV) P1337-Y1352 (human); experiment: SPR, low density biotinylated peptide surface on streptavidin, simple 1:1 interaction model, CLAMP
[18] = biological target: biotinylated synthetic collagen peptide α1(IV) P1337-Y1352 (human); experiment: SPR, high density biotinylated peptide surface on streptavidin, avidity model (second binding step), CLAMP
[19] = biological target: biotinylated synthetic collagen peptide α1(IV) P1337-Y1352 (human); experiment: SPR, medium density biotinylated peptide surface on streptavidin, avidity model (second binding step), CLAMP
[20] = biological target: denatured collagen type-I (human) (UniProt P02452); experiment: ELISA
[21] = biological target: human heat-denatured collagen type IV (human); experiment: ELISA
[22] = biological target: denatured collagen III; experiment: ELISA (data not shown)
[23] = biological target: denatured collagen V; experiment: ELISA (data not shown)
[24] = biological target: human heat-denatured collagen type IV (human); experiment: ELISA (data not shown)
[25] = biological target: denatured collagen type-I (human) (UniProt P02452); experiment: cell-based or functional assay
[26] = biological target: human heat-denatured collagen type IV (human); experiment: ELISA, wells coated with human heat-denatured collagen IV, anti-mouse IgM-HRP, read at 450 nm
[27] = biological target: HUI77, murine IgM anti-denatured-collagen monoclonal antibody; experiment: competition ELISA on coated dn-collagen IV
[28] = biological target: D93, recombinant humanized IgG1 kappa antibody targeting denatured-collagen; experiment: competition ELISA on coated human dn-collagen IV
[29] = biological target: HUI77, murine IgM anti-denatured-collagen monoclonal antibody; experiment: competition ELISA on coated dn-collagen IV; * separate assay
[30] = biological target: D93, recombinant humanized IgG1 kappa antibody targeting denatured-collagen; experiment: competition ELISA on coated human dn-collagen IV; * separate assay

Chain of UniProt P02452 (P02452 21-1464 V1081A/Q1391K, chain 1 of 2): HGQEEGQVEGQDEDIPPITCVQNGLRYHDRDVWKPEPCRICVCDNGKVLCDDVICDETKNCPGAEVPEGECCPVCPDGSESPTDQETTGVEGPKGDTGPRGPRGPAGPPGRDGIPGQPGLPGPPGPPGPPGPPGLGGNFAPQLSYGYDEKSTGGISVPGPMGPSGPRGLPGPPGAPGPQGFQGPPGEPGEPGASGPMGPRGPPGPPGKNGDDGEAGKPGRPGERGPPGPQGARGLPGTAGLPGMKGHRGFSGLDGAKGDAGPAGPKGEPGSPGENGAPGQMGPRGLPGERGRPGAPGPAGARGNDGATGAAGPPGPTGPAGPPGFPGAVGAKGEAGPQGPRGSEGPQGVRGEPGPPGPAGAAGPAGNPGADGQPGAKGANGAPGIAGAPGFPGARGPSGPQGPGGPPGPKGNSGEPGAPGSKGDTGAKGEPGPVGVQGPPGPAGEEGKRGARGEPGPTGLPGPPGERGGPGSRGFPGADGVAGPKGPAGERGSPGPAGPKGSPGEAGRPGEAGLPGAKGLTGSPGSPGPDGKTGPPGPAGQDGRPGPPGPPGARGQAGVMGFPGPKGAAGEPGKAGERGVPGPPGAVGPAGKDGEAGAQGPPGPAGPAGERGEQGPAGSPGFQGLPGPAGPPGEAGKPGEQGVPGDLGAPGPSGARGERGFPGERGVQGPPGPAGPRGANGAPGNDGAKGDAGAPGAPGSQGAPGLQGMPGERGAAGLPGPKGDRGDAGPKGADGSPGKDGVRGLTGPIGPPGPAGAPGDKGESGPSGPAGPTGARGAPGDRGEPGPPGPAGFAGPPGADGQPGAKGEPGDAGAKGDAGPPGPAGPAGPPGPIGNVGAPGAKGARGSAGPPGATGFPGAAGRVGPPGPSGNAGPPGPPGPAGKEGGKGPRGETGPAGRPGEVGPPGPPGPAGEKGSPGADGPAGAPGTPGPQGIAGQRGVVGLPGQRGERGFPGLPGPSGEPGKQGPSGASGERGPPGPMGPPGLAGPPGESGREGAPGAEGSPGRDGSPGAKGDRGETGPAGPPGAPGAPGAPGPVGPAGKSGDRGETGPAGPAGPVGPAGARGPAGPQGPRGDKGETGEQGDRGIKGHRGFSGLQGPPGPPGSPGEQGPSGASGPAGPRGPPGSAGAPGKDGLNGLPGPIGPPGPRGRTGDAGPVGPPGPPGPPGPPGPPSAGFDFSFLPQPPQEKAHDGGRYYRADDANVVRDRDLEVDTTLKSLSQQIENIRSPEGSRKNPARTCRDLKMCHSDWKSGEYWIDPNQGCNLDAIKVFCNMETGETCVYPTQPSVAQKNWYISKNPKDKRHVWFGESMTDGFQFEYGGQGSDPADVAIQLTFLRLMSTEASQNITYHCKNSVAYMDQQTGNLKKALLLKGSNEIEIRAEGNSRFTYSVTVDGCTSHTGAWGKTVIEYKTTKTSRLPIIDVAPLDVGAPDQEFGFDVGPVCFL
Chain of UniProt P02452 (P02452 other isoform, or with tags, fused parts or gaps, chain 2 of 2): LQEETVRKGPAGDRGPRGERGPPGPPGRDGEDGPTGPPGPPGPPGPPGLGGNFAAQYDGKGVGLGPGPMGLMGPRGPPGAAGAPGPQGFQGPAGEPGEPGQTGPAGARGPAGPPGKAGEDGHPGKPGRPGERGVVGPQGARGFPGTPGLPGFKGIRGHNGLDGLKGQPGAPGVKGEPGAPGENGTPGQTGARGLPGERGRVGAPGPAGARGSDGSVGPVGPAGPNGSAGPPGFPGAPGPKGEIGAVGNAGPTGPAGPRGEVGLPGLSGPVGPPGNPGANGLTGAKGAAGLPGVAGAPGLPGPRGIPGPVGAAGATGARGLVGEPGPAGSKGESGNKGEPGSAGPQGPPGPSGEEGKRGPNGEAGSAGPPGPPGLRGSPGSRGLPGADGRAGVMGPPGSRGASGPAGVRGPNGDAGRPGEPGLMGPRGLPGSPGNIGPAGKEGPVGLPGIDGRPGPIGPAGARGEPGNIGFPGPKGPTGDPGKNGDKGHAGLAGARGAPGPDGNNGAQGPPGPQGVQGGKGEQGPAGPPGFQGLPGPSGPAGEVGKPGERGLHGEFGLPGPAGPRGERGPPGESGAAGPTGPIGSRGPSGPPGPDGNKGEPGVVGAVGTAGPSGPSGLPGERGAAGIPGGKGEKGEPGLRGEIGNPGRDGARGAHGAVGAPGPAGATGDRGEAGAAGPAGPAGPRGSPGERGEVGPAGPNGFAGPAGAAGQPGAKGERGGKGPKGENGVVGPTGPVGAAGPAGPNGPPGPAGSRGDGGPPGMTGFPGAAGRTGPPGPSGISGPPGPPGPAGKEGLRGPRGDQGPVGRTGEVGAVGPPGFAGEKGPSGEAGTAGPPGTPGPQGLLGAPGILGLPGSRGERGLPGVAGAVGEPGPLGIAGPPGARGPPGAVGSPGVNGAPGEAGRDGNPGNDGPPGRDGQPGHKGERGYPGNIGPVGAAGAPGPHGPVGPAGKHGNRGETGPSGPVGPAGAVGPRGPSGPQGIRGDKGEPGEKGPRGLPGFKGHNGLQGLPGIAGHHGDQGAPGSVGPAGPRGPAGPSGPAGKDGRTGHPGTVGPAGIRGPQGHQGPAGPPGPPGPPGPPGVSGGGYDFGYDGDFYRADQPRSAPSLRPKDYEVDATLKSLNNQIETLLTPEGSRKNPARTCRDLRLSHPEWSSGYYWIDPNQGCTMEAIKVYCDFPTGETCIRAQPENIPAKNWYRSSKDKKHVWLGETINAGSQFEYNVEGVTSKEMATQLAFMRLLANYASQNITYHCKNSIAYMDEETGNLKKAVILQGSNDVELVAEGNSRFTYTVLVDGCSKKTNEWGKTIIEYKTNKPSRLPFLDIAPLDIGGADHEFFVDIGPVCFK
Chain of human heat-denatured collagen type IV (human) (P08572 other isoform, or with tags, fused parts or gaps): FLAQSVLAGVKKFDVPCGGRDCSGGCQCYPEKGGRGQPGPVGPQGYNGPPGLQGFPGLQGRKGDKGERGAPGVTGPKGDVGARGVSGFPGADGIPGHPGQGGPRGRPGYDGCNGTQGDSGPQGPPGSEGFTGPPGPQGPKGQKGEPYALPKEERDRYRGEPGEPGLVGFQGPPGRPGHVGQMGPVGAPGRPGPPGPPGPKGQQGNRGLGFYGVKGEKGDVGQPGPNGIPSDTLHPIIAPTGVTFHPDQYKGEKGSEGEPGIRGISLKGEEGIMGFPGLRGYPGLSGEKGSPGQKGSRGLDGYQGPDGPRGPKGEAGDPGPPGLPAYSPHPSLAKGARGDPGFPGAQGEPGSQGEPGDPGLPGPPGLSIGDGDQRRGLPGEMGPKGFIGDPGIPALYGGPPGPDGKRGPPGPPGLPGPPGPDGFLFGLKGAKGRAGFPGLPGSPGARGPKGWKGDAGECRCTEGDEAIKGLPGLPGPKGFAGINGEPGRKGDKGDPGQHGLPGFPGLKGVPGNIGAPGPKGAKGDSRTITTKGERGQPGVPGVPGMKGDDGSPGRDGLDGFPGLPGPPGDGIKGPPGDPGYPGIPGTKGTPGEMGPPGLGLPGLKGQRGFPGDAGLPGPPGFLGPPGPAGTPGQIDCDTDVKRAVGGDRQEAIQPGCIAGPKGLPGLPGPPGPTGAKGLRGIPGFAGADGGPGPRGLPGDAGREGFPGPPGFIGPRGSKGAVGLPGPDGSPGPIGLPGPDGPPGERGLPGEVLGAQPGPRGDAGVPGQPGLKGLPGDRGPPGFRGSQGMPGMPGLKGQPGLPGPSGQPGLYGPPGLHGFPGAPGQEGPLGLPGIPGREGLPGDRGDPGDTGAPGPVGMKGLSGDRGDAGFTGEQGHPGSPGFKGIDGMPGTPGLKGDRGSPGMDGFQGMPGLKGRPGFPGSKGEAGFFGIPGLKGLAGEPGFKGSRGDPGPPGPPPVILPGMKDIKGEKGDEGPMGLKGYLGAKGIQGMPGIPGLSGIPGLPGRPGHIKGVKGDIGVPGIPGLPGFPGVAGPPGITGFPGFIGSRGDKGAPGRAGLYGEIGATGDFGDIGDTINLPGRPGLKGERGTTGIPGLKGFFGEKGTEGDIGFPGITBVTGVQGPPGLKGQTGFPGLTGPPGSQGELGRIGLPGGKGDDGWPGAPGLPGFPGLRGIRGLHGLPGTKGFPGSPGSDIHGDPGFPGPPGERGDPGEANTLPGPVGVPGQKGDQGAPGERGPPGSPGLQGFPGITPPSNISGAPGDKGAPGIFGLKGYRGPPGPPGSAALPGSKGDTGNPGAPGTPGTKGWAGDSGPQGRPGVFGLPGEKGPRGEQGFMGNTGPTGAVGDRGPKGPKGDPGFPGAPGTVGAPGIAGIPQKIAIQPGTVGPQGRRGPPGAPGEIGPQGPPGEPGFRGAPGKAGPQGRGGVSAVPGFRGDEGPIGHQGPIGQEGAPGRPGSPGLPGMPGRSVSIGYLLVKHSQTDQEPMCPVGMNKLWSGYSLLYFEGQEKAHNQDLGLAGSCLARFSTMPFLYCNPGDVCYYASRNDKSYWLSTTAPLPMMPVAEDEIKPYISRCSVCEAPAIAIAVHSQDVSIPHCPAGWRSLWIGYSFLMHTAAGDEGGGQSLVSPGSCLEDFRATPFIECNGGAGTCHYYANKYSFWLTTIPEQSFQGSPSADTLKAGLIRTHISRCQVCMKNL
Chain of D93, recombinant humanized IgG1 kappa antibody targeting denatured-collagen (heavy, as listed by the source, chain 1 of 2): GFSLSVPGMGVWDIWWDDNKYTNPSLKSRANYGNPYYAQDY
Chain of D93, recombinant humanized IgG1 kappa antibody targeting denatured-collagen (light, as listed by the source, chain 2 of 2): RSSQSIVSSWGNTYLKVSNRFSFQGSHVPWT

MAB BINDING (OD450nM) [1]: 0.136 OD450nM
Molecule: 1 (PGAKGLPGPPGPPGPY) [compound 1]

binding activity by D93 (primary peptide array) [1]: higher activity than the others
MAB BINDING (OD450nM) [1]: 0.348 OD450nM
Molecule: 13: peptide 13 of the primary collagen IV alpha 1 array: biotinylated 16-mer, 50% proline/hydroxyproline at each proline (PGAKGLPGPPGPPGPY; not fully specified; also: biotinylated, position not given here) [compound 13]

Kd [2]: 0.03 to 0.063 µM
koff [3]: 0.33 s⁻¹
kon [3]: 32700 M⁻¹ s⁻¹
koff [4]: 0.038 s⁻¹
kon [4]: 5800 M⁻¹ s⁻¹
koff [5]: 0.21 s⁻¹
kon [5]: 26800 M⁻¹ s⁻¹
Kd [6]: 10 µM
Kd [7]: 6.5 µM
Kd [8]: 11 µM
Kd [9]: 1.3 µM
Kd [10]: 7.8 µM
Kd [11]: 1.7 µM
koff [12]: 0.057 s⁻¹
kon [12]: 41900 M⁻¹ s⁻¹
koff [13]: 0.1 s⁻¹
kon [13]: 57800 M⁻¹ s⁻¹
ka2 [14]: 7.1e-06 RU s-1
kd2 [14]: 0.00099 s⁻¹
ka2 [15]: 4.3e-06 RU s-1
kd2 [15]: 0.0024 s⁻¹
ka2 [16]: 1.8e-06 RU s-1
kd2 [16]: 0.0017 s⁻¹
koff [17]: 0.52 s⁻¹
kon [17]: 42800 M⁻¹ s⁻¹
ka2 [18]: 6.6e-06 RU s-1
kd2 [18]: 0.014 s⁻¹
ka2 [19]: 5.2e-06 RU s-1
kd2 [19]: 0.006 s⁻¹
Molecule: D93, recombinant humanized IgG1 kappa antibody targeting denatured-collagen

fold apparent reactivity, denatured over native collagen type-I [20]: > 10 fold
fold affinity, denatured over native collagen type-IV [21]: 10 fold
fold tighter binding, denatured over native form [22]: 7 fold
fold tighter binding, denatured over native form [23]: 10 fold
fold tighter binding, denatured over native form [24]: 8 fold
inhibition of human endothelial cell adhesion to denatured collagen type-I [25]: 40%
inhibition of human endothelial cell migration on denatured collagen-I [25]: 80%
EC50 (read off the curve) [26]: 0.1 µg/mL
Molecule: HUI77, murine IgM anti-denatured-collagen monoclonal antibody

binding activity by D93 (primary peptide array) [1]: higher activity than the others
Molecule: peptide 40: primary array peptide, collagen IV alpha I chain residues 1337-1352, 50% proline/hydroxyproline mixture; b687 equates it with SEQ ID NO: 2 (XGAKGLPGPXGPXGPY; not fully specified; X: randomised place (mixture))

% inhibition of HUI77 binding to dn-collagen IV, peptide 10 µM [27]: 6.5%
% inhibition of HUI77 binding to dn-collagen IV, peptide 100 µM [27]: 6.5%
% inhibition of HUI77 binding to dn-collagen IV, peptide 1000 µM [27]: 6.5%
% inhibition of D93 binding to dn-collagen IV, peptide 1 µM [28]: 4.5%
% inhibition of D93 binding to dn-collagen IV, peptide 10 µM [28]: 1%
% inhibition of D93 binding to dn-collagen IV, peptide 100 µM [28]: 0%
% inhibition of D93 binding to dn-collagen IV, peptide 1000 µM [28]: 3.5%
% inhibition of HUI77 binding to dn-collagen IV, peptide 1000 µM [29]: 11.1%
% inhibition of D93 binding to dn-collagen IV, peptide 1000 µM [30]: 4.9%
Molecule: CTWPRHHTTDALL [non-collagen control peptide No. 6, … (SEQ ID NO: 39)]

% inhibition of HUI77 binding to dn-collagen IV, peptide 10 µM [27]: 8.5%
% inhibition of HUI77 binding to dn-collagen IV, peptide 100 µM [27]: 12%
% inhibition of HUI77 binding to dn-collagen IV, peptide 1000 µM [27]: 78%
% inhibition of D93 binding to dn-collagen IV, peptide 1 µM [28]: 33%
% inhibition of D93 binding to dn-collagen IV, peptide 10 µM [28]: 82.5%
% inhibition of D93 binding to dn-collagen IV, peptide 100 µM [28]: 94%
% inhibition of D93 binding to dn-collagen IV, peptide 1000 µM [28]: 94%
% inhibition of HUI77 binding to dn-collagen IV, peptide 100 µM [29]: 0%
% inhibition of HUI77 binding to dn-collagen IV, peptide 1000 µM [29]: 63%
% inhibition of D93 binding to dn-collagen IV, peptide 10 µM [30]: 79.9%
% inhibition of D93 binding to dn-collagen IV, peptide 100 µM [30]: 90.3%
Molecule: GP[Hyp]GP[Hyp]GPY [synthetic peptide No. 3, … (SEQ ID NO: 30)]
